Laboratory results as given in patent US20140106371A1.

Columns and labels:
[1] = biological target: asialotransferrin (human) (UniProt P02787); test: qualitative ELLA, lectin 2 µg/mL
[2] = biological target: Gal-α1,3-Gal-BSA glycoconjugate (UniProt P02769); test: ELLA lectin dose response
Chain of Gal-α1,3-Gal-BSA glycoconjugate (P02769 25-607 limits assumed): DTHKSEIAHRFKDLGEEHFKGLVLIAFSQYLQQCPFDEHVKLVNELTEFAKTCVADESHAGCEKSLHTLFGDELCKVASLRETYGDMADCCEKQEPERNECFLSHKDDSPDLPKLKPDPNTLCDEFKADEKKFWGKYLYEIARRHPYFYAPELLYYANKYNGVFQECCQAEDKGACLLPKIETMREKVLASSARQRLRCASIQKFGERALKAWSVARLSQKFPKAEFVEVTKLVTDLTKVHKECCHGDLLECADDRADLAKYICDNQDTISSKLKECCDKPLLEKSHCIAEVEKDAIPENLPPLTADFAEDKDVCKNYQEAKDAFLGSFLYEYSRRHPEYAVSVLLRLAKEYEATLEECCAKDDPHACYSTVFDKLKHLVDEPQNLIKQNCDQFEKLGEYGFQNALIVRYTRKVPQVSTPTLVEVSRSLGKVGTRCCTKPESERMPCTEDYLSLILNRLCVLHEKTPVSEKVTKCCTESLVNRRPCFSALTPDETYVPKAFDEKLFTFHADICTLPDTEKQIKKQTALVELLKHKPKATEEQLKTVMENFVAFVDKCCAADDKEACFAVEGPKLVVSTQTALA

Chain of asialotransferrin (human) (P02787 20-698 limits assumed): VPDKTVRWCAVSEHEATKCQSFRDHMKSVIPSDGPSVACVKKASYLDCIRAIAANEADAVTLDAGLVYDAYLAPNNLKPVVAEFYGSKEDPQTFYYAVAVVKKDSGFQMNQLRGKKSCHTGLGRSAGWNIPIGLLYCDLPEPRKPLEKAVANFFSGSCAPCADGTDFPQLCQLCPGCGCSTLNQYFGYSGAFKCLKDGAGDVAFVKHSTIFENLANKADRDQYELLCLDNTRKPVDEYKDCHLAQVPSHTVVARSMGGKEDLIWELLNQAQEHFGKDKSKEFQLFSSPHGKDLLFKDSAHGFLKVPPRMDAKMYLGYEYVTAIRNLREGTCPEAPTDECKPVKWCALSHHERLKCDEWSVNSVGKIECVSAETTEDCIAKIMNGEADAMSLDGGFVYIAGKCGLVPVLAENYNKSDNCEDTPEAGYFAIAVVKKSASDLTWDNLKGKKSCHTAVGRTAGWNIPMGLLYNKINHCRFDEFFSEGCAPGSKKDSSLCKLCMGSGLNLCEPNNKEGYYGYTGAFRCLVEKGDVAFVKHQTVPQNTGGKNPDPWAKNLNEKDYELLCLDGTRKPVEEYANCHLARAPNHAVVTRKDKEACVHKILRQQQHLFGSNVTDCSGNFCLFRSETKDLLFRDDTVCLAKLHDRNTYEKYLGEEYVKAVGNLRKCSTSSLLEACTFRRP

H50N (rPA-ILNm protein) (from UniProt Q05097 1-122)
ELLA signal relative to rPA-ILNmE6 [1]: 0.5 fold

H50N:Q53G (from UniProt Q05097 1-122)
ELLA signal relative to rPA-ILNmE6 [1]: < 0.5 fold

rPA-ILN (recombinant wild type PA-IL with an N-terminal RGS-6HIS affinity tag) (from UniProt Q05097 1-122)
lectin concentration at which the ELLA signal reached saturation [2]: > 1.25 µg/mL
